Results as given in the DeepSol protein solubility set.

Test: soluble on expression in E. coli; label from the status in PepcDB or PDB records

Row | Sequence | soluble on expression in E. coli
1 | MAAWFECKVTYEKVADNGMPKKVVESYLVDADSFTLAEAKMIEEITPFVSMGEFNISNIRKVNYAELFLNEDDKCDRYYRCKVLYVTIDEKNGVEKKTPAFMLVKSDSLPNAVAELEKQMGKGLADYEIASVAETALMDVFQYVPAQ | not soluble
2 | MGSDKIHHHHHHMMLTTKLIYCCLVSIVLHPINNLNPKPYISLFNLQGILLPTQFSHSLTSLDAFAPRLLAWFEINGRHDLPWQQHQTDTPNPYIVWLSEVMLQQTQVTTVLPYFARFMASFPTVQDLAAAEWDTVAEHWAGLGYYARARNLHKGAKQLVEVIDETGEYPTTLAGWEAISGVGPSTAGAIMAMGLHRYGVICDGNVKRVLTRWAAIDGDITKSATTKELWALAERLTPKENSGLFAQAMMDMGATLCTRSKPACLLCPLQDDCLAHAQGRETDYPVKAKKQPKPSKFSNALLIENENGEILWLQRPDNGIWGGLWSLPLAFIEKISGKVAVKDADKNKNKELIAANDNQLLEVASNEKVYETEFTTAEQIINEWINKNELVAKSVNDTLLDDSPIKHSLTHFHWYLTPQTVNLNTKQAQEITEALQAGEININWLNADDAQATLGLPKAMVKILE | not soluble
3 | MGSDKIHHHHHHMRILRVAQDIFPDKVGGAPYHIHALSRDQAEMGHDVTVLTVSNDQSKPQTEQRAGYTLVRLSPRIELFGNALFAGTVKYLRNAREYDVVHAHSHLFFSSNLTAAYSRVTDIPLAVTCHGLMSQRVPEWFSRFHLNTVGRFTYNAADVLFSYTAPERERLRDLGVSSDIRVIHNGIDVDRFTPVGATYDRITDATGPAVVFVGRLVEGKRPRDVLKAFQTVQNNIPEAKLFFCGDGPLRDKLEQIVERENMRESIRFLERVPYQEMPAVYRAADLFVLASRTEGFPRSVMESMACATPILSTRLEQTEQVIEQAGRTVPVGDTTALADAMSSMLDDRAALRKLGQAGREIVMREYDWSETVEQTTQTLGTISTSTPSQQQVDSGQAEEQVIPAGSNTEHEQ | not soluble
4 | EAMKIKNQFATWDYEKKLQSMEHDSSIQKQLLATQRAQIEQRLAAQKAALEAERDAAGYHAAAGEADNEGVRQAYDALAQDSARRARDLAETAQRGKSQLDEIVGRLKDLADRSAANIINQGINQTVVVKLEKTGRLHTDQDIAKALEETLNAVKGLEARVEMVEAARAPSALEAAHSQL | not soluble
5 | MGSSHHHHHHSSGLVPRGSHMTPKDDEFYQQWQLKYPKLILREASSVSEELHKEVQEAFLTLHKHGCLFRDLVRIQGKDLLTPVSRILIGNPGCTYKYLNTRLFTVPWPVKGSNIKHTEAEIAAACETFLKLNDYLQIETIQALEELAAKEKANEDAVPLCMSADFPRVGMGSSYNGQDEVDIKSRAAYNVTLLNFMDPQKMPYLKEEPYFGMGKMAVSWHHDENLVDRSAVAVYSYSCEGPEEESEDDSHLEGRDPDIWHVGFKISWDIETPGLAIPLHQGDCYFMLDDLNATHQHCVLAGSQPRFSSTHRVAECSTGTLDYILQRCQLALQNVCDDVDNDDVSLKSFEPAVLKQGEEIHNEVEFEWLRQFWFQGNRYRKCTDWWCQPMAQLEALWKKMEGVTNAVLHEVKREGLPVEQRNEILTAILASLTARQNLRREWHARCQSRIARTLPADQKPECRPYWEKDDASMPLPFDLTDIVSELRGQLLEAKP | soluble
6 | SAAPRVFPLSCAVQQYAWGKMGSNSEVARLLASSDPLAQIAEDKPYAELWMGTHPRGDAKILDNRISQKTLSQWIAENQDSLGSKVKDTFNGNLPFLFKVLSVETPLSIQAHPNKELAEKLHLQAPQHYPDANHKPEMAIALTPFQGLCGFRPVEEIVTFLKTAAGNNMEDIFGELLLQLHQQYPGDIGCFAIYFLNLLTLKPGEAMFLEANVPHAYLKGDCVECMACSDNTVRAGLTPKFIDVPTLCEMLSYTPSSSKDRLFLPTRSQEDPYLSIYDPPVPDFTIMKTEVPGSVTEYKVLALDSASILLMVQGTVIASTPTTQTPIPLQRGGVLFIGANESVSLKLTEPKDLLIFRACCLL | soluble
7 | MIRDYKSKLEFLAFYDELTGLPNKNSLIRWLNLKVSQMDCIDTYLIFLEVRDLEKLNVTYGYDLVDELIIHISKRIKDIAGEGNKAFKIGFDRFAIICKSENISDFIERMLSQLLLPYNVNGNLIRVNFNIGAAQIENSNEAAANLMRRCDLALIKAKEEGLNEYVIFKPSIELEHHHHHH | not soluble
8 | MFKKLLHSLFAGLTFMAAVAAVPAHAQEADAQTTVKTAVDDVLATIKGDSDLRSGNMQKVFQLVDQKIVPRADFKRTTQIAMGRFWSQATPEQQQQIQDGFKTLLVRTYAGALANVRNQTVSYKPFRAAADDTDVVVRSTVNNNGEPVALDYRMEKSANGWKVYDINISGLWLSETYKNQFAEVISKRGGVSGLVQFLDERNAQLAKGPAKLEHHHHHH | soluble
9 | APYRYLAAGAADVISNLSAVKDWKLAHRLKGEEFSSSAAAMSEYSAQEVLSQINEIKKYEESSVWLVTKNILASGTAMAIAGNSRPGSGSEHLFAHALEAAGVENMLHGEMCAMGTVISMYLHDENWQQIKEAFDNLGISIRSRDYGIEDEIVINALRTAHAIRPERYTILGESDMSYDAAVKALELTGI | not soluble
10 | KNFNPPTRRNWESNYFGMPLQDLVTAEKPIPLFVEKCVEFIEDTGLCTEGLYRVSGNKTDQDNIQKQFDQDHNINLVSMEVTVNAVAGALKAFFADLPDPLIPYSLHPELLEAAKIPDKTERLHALKEIVKKFHPVNYDVFRYVITHLNRVSQQHKINLMTADNLSICFWPTLMRPDFENREFLSTTKIHQSVVETFIQQCQFFFYNGEIVE | soluble
11 | MSRKYFYFDYDYYGMSFCEEEITTEPEEKVAYTSNSGGFADEVTGIPKEGHQSSIGEHSCVMPNTQDTGREEPEETSKVAETSEQSLFRIPRKAYRFTPGQLWELQAVFVENQYPDALKRKELAGLLNVDEQKIKDWFNNKRAKYRKIQREILGGKNITPTQEELRMKTLVESKKIIIFQEQEGDGLFWEHQNIDTQNSPLSLLFS | soluble
12 | MGIIDKIKAIEEEMARTQKNKATEHHLGLLKGKLARYRQQLLADEAGSGGGGGSGFEVAKSGDARVVLIGYPSVGKSSLLGKITTTKSEIAHYAFTTLTSVPGVLKYQGAEIQIVDLPGIIYGASQGKGRGRQVVATARTADLVLMVLDATKSEHQRASLEKELENVGIRLNKEKPNIYYKKKETGGVKVTFTSPPKTNLTEQAIKMILRDYRIHNAEVLVRDDQCTIDDFIDVINEQHRNYVKCLYVYNKIDAVSLEEVDKLAREPNTVVMSCEMDLGLQDVVEEIWYQLNLSRVYTKKRGVRPVFDDPLVVRNNSTIGDLCHGIHRDFKDKFKYALVWGSSAKHSPQKCGLNHRIDDEDVVSLFAK | soluble
13 | MKMNYHLSTSSYTTSMLSCTVLDDDIRYEKLSWKLDEAEMQGLIM | soluble
14 | MKAHVLFSGGKDSSLSAIILHNLGYEIQLVTVNFGVLDSYLHAEETAKIIGYSHKVELIDKELIEKSVDMILKDGYPGNGIQFVHKQVLEIISEKYDVIADGTRRDDRVPRLDHSELQSLEMRKNIQYVTPLMGFGHKTLRNLVNNYFIISEKESEELLKSDYETEIRELIRQRGIDPLEYFPKHIQSRVIGLKR | not soluble
15 | GSHMECADVPLLTPSSKEMMSQALKATFSGFTKEQQRLGIPKDPRQWTETHVRDWVMWAVNEFSLKGVDFQKFCMSGAALCALGKECFLELAPDFVGDILWEHLEILQKEDVK | soluble
16 | MRERRYSSTSPERLAAALFDVAAESGLEGASVREVAKRAGVSIGAVQHHFSTKDEMFAFALRTLVDKLLARLSEVERGGDPARALFAAMSQLLPLDEARSREAHVMAAFAVRAATSPSLAEIRRKTLFTIRTGLSAVLIGIGTPEAETRAALLLATVDGLALDAIGSPALYPPEYLEHALDIQIGMILQGADVVPSSSIELAS | soluble
17 | QPKPEEKLTNNIILKKLQIALNLKADEVLDLLKLVNFRLSKHELSAFFRKPDHKHYRVCKDQVLRNFLQAVQQNLRG | not soluble
18 | MGLSDWELAAARAAIARGLDEDLRYGPDVTTLATVPASATTTASLVTREAGVVAGLDVALLTLNEVLGTNGYRVLDRVEDGARVPPGEALMTLEAQTRGLLTAERTMLNLVGHLSGIATATAAWVDAVRGTKAKIRDTRKTLPGLRALQKYAVRTGGGVNHRLGLGDAALIKDNHVAAAGSVVDALRAVRNAAPDLPCEVEVDSLEQLDAVLPEKPELILLDNFAVWQTQTAVQRRDSRAPTVMLESSGGLSLQTAATYAETGVDYLAVGALTHSVRVLDIGLDM | soluble
19 | GRRDNLIVGLDIGTTKICAIVGNVTEDGIDIVGIGTSPSRGMRKGVVINIESTVESIKKAVSEAELMAGCDIRSVYAGIAGGHIKGINSQGVIAIKNREVSSEDVKRVIDAAKAIAIPMDR | not soluble
20 | MSSYFPVYLDLKDKEVLVIGGGRVATRKVKTLLEFTKNITIVSPKVTEELKNLIKEKKIKWIDRKFKPSDLKDKFLVVVAVDDIKLQKRVFNLCEKRGILCNSVDSPKYCNFIFPSIIKRGDLVISISTSGKVPALSRALREKIEECLPENIEEIMKELEIIRKSEEKGEERQKKLLRLARELLKNFLEHHHHHH | soluble
21 | MFDVLMYLFETYIHNEAELRVDQDRLERDLTDAGFDREDIYNALLWLEKLADYQDGLAEPMQLASDPLSMRIYTVEECERLDASCRGFLLFLEQIQVLNLETREMVIERVLALDTAEFDLEDLKWVILMVLFNIPGCENAYQQMEELLFEVNEGMLH | not soluble
22 | MSTNEITKRLPNLTSRRALLLYSLPVLVAIGVSHSLKESSLTKTIALNLPESQVVERILDATTAEVVTPPNFEYQIQAGDNLSTIFSQLGFGYSSLMKVMETDLNYLALDTLKPGNTLRFWRNDATGELEKMELQFSIADKVVYQLNSDGGYDFTDISIPGVWRQEPLVGVIQGSFSSSANRLGLSSAEISQVVSLLKEQVNFGRDLRAGDRFEVVRRSQTINGVSTGKNEIEAIKIYNRGREITAYLHTDGQFYNAKGESLQRAFQRYPVSRSWRISSGFNPNRLHPVTGRVAP | not soluble
23 | SEDNITVRFVTENDKEGWQRLWKSYQDFYEVSFPDDLDDFNFGRFLDPNIKMWAAVAVESSSEKIIGMINFFNHMTTWDFKDKIYINDLYVDENSRVKGAGGKLIQFVYDEADKLGTPSVYWCTDESNHRAQLLYVKVGYKAPKILYKRKGY | soluble
24 | MGSDKIHHHHHHMDAILMSLMTALNEHLLINVYQRDTDDFYTGYVQVLGHDAVVLGTYNDSGIADGCALIAFSAIDQVEFAGDDLDSMNFRINLAQAQHFLTLQGQEKPLQFDATQNLIQQLATQAKANGQMVMVVVADDDAYLEGQVTAVAEDRFSMAIFNKFNYTDVRALQVDFSDILVMEFHGLDLKLETELVWQRDHLKHVATKLYQNDGQLAGVFQNALANNRLISVVPKGPEDQFFVGRVKAVNDRVVVLSLKDMAGQFGGYILLTLPSIQNVATASDYLQTISFYEKWDQTHHFSQQPVLNADREFDPNDDLIRTIISEAAGFERVVRIKVADSDEHFLGYPENVGETDFDLNLVGPDDGETAQIRYGQIREIAFGHIFAYLQEAQLKNAGR | not soluble
